# According to patent US20240066131A1 (Protagonist Therapeutics, Inc., priority 2020, published 2024):
# Starred links: 1 amine or outer side, 2 acyl side, 3 side chain; linkers in the order of their positions; H or OH if unused. Positions of bridges follow the written chain, without caps; N, C: chain ends. Non-standard residues stand in square brackets, D forms with d. Residues, ends and D or L forms follow the SMILES beside them. Groups on a side chain read outwards from the residue. *: point of attachment. PEG12 = NCCOCCOCCOCCOCCOCCOCCOCCOCCOCCOCCOCCOCCC(=O)O; X14 = O=C(CN(CCC(c1ccccc1)c1ccccc1)[*:1])[*:2]; C18 diacid = O=C(O)CCCCCCCCCCCCCCCCC(=O)*; Dip = N[C@H](C(=O)O)C(c1ccccc1)c1ccccc1; Palmitoyl = CCCCCCCCCCCCCCCC(=O)*; β3hF = N[C@H](CC(=O)O)Cc1ccccc1; Isovaleryl = CC(C)CC(=O)*; Abu = CC[C@H](N)C(=O)O; AEEA = NCCOCCOCC(=O)O; Ahx = NCCCCCC(=O)O
# T1: ferroportin (Homo sapiens, UniProt Q9NP59)
# T1 sequence (Q9NP59 1-571): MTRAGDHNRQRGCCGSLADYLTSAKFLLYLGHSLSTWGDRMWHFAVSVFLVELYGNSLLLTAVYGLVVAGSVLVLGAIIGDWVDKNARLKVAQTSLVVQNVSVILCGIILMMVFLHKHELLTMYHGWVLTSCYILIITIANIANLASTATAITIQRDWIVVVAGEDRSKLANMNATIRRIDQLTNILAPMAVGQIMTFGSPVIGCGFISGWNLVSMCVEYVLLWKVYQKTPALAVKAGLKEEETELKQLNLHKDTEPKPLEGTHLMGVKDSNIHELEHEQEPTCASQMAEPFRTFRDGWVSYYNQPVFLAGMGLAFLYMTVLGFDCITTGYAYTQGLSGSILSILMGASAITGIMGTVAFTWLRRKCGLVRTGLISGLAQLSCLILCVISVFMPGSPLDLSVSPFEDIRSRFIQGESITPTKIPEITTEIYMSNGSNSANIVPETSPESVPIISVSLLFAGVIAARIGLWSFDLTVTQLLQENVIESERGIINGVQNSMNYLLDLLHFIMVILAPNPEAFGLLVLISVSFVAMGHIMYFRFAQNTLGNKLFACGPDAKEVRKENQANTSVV
# T2: ferroportin endogenously expressed on T47D cells (HTB 133, ATCC) (human, UniProt Q9NP59 1-571)
# T2 sequence (looked up): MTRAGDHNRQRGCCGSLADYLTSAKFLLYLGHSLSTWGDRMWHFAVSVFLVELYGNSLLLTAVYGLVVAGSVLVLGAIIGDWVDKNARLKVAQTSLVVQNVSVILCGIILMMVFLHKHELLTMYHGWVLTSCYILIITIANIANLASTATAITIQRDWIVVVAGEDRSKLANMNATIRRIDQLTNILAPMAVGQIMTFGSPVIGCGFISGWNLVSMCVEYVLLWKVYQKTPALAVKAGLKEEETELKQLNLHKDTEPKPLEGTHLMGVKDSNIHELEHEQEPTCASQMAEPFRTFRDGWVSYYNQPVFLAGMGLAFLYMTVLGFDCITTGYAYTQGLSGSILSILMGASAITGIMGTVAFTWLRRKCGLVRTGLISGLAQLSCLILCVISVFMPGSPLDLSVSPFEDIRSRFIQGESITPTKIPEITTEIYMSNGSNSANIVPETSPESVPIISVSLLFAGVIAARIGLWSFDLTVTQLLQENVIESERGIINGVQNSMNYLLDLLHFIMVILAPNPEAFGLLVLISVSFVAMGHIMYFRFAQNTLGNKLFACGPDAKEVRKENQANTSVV
# Target: T1, ferroportin
# Assay: FPN activity assay: internalization/degradation of ferroportin-GFP in stably transfected HEK293 cells (loss of GFP fluorescence)
# Type: cell-based
# Settings: read-out: FPN EC50; Table 6A
# Procedure: Following internalization, the ferroporin protein is degraded.
# A retro inverse peptide is a peptide with a reversed sequence in all D amino acids. An example is that Hy-Glu-Thr-His-NH2 becomes Hy-DHis-DThr-DGlu-NH2. The EC50 of these reference compounds for ferroportin internalization/degradation was determined according to the FPN activity assay described above. These peptides served as control standards.
row,Molecule,DC50 [nM]
1,CCCCCCCCCCCCCCCC(=O)NCCCCCC(=O)NCCCC[C@H](NC(=O)[C@@H](NC(=O)[C@H](C)NC(=O)[C@@H]1CCCN1C(=O)CN(CCC(c1ccccc1)c1ccccc1)C(=O)[C@H](Cc1c[nH]cn1)NC(=O)[C@@H](NC(=O)[C@H](CCC(=O)O)NC(=O)CC(C)C)[C@@H](C)O)[C@@H](C)CC)C(=O)N[C@H](CC(N)=O)Cc1ccccc1 [compound 89] (Isovaleryl-ETH[X14]PAIK([Ahx-Palmitoyl])[β3hF]-NH2),> 3000

# Target: T2, ferroportin endogenously expressed on …
# Assay: cell-based or functional assay
# Settings: not given
row,Molecule,T47D MSA IC50 [nM]
1,Isovaleryl-ETH[Dip]PAIK([AEEA-AEEA-Ahx-C18 diacid])[β3hF]-NH2 (SMILES CC[C@H](C)[C@H](NC(=O)[C@H](C)NC(=O)[C@@H]1CCCN1C(=O)[C@@H](NC(=O)[C@H](Cc1c[nH]cn1)NC(=O)[C@@H](NC(=O)[C@H](CCC(=O)O)NC(=O)CC(C)C)[C@@H](C)O)C(c1ccccc1)c1ccccc1)C(=O)N[C@@H](CCCCNC(=O)COCCOCCNC(=O)COCCOCCNC(=O)CCCCCNC(=O)CCCCCCCCCCCCCCCCC(=O)O)C(=O)N[C@H](CC(N)=O)Cc1ccccc1) [Isovaleric Acid-E-T-H-[Dpa]-P-A-I-[Lys(1Peg2_1Peg2_Ahx_C18_Diacid)]-[bhPhe]-NH2],143
2,Isovaleryl-KTH[Dip]PAIE[β3hF]K([Ahx-Palmitoyl])-NH2 (lactam 1-8; SMILES CCCCCCCCCCCCCCCC(=O)NCCCCCC(=O)NCCCC[C@H](NC(=O)C[C@H](Cc1ccccc1)NC(=O)[C@@H]1CCC(=O)NCCCC[C@H](NC(=O)CC(C)C)C(=O)N[C@@H]([C@@H](C)O)C(=O)N[C@@H](Cc2c[nH]cn2)C(=O)N[C@@H](C(c2ccccc2)c2ccccc2)C(=O)N2CCC[C@H]2C(=O)N[C@@H](C)C(=O)N[C@@H]([C@@H](C)CC)C(=O)N1)C(N)=O) [Isovaleric Acid-K-T-H-[Dpa]-P-A-I-E-[bhPhe]-[Lys(Ahx_Palm)]-NH2],3.53
3,XETHXPAIXXXX (N-term Isovaleric Acid; Dpa4; 123 Triazole8; bhPhe9; Lys(Ahx_Palm)10; (D)Lys11; C-term NH2; cyclized A-123Triazole (side-chain C of alanine and C5 of triazole joined by a C-C bond)) [Isovaleric Acid-E-T-H-[Dpa]-P-A-I-[123 Triazole]-[bhPhe]-[Lys(Ahx_Palm)]-[(D)Lys]-NH2],10.8
4,XETHXPXX (N-term Cyclohexanoic_Acid; Dpa4; Lys(Ahx_Palm)6; C-term N_Butyl_Phe) [Cyclohexanoic_Acid-E-T-H-[Dpa]-P-[Lys(Ahx_Palm)]-N_Butyl_Phe],54.3
5,XETHXPXX (N-term Butyric_Acid; Dpa4; Lys(Ahx_Palm)6; C-term N_Butyl_Phe) [Butyric_Acid-E-T-H-[Dpa]-P-[Lys(Ahx_Palm)]-N_Butyl_Phe],10.1
6,Isovaleryl-ETH[Dip]P[Abu]IK([PEG12-C18 diacid])[β3hF][dK]C-NH2 (thioether 6-11) [Isovaleric Acid-E-T-H-[Dpa]-P-Abu-I-[Lys(PEG12_C18_Diacid)]-[bhPhe]-[(D)Lys]-[Cys]-NH2],388
7,XETHXPXX (N-term Isovaleric Acid; Dpa4; Lys(Ahx_Palm)6; C-term N_Ethyl_Nap) [Isovaleric Acid-E-T-H-[Dpa]-P-[Lys(Ahx_Palm)]-N_Ethyl_Nap],24.4

# Next, values leading:
row,T47D MSA IC50 [nM],Molecule
1,12.7,XETHXPXX (N-term Isovaleric Acid; Dpa4; Lys(Ahx_Palm)6; C-term N_Pentyl_Phe) [Isovaleric Acid-E-T-H-[Dpa]-P-[Lys(Ahx_Palm)]-N_Pentyl_Phe]
2,15.3,XETHXPXX (N-term Isovaleric Acid; Dpa4; Lys(Ahx_Palm)6; C-term N_Propyl_Phe) [Isovaleric Acid-E-T-H-[Dpa]-P-[Lys(Ahx_Palm)]-N_Propyl_Phe]
3,46.1,XETHXPXX (N-term Isovaleric Acid; Dpa4; Lys(bAla_Palm)6; C-term N_Butyl_Phe) [Isovaleric Acid-E-T-H-[Dpa]-P-[Lys(bAla_Palm-N_Butyl_Phe]
4,179,XETHXPXX (N-term Isovaleric Acid; Dpa4; Lys(IsoGlu_Palm)6; C-term N_Butyl_Phe) [Isovaleric Acid-E-T-H-[Dpa]-P-[Lys(IsoGlu_Palm-N_Butyl_Phe]
